Here are results for 1 substance from PMC2921846.

The target in the assay is PKCα-YFP (mouse) (UniProt P20444). The assay is described as follows: FRET or BRET.

On to “Erk-CFP (from UniProt P63085 1-358) (natural protein)”, for which the FRET efficiency came to 7.19%.
